B1: empty pBDGal4 vector (Gal4 binding domain alone) (other, UniProt P04386 1-148, looked up)
chain: MKLLSSIEQACDICRLKKLKCSKEKPKCAKCLKNNWECRYSPKTKRSPLTRAHLTEVESRLERLEQLFLLIFPREDLDMILKMDSLQDIKALLTGLFVQDNVNKDAVTDRLASVETDMPLTLRQHRISATSSSEESSNKGQRQLTVSI
notes: Negative control in the yeast two-hybrid assay
B2: empty prey pADGal4 vector (Gal4 activation domain alone) (other, UniProt P04386 761-881, looked up)
chain: PSALFGGANFNQSGNIADSSLSFTFTNSSNGPNLITTQTNSQALSQPIASSNVHDNFMNNEITASKIDDGNNSKPLSPGWTDQTAYNAFGITTGMFNTTTMDDVYNYLFDDEDTPPNPKKE
notes: as for B1

Columns and labels:
[1] = target: T1, full-length rice OsICK2 protein (Oryza sativa, UniProt A2X9W8 1-262); experiment: yeast two-hybrid, OsICK2 in prey pADGal4 with empty pBDGal4
T1 construct: The Gal4 parts are not written into the chain; Form 'mature' here means the full-length protein; also called Os2
T1 sequence: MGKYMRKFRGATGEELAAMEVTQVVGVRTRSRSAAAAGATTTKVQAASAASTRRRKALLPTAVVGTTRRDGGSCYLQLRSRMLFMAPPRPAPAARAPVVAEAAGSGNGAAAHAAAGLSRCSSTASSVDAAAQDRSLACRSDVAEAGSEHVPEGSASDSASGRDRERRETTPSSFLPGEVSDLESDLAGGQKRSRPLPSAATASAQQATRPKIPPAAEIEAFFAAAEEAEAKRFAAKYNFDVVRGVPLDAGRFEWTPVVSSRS
Source text: (§1) The interactions of OsICK2 and OsICK4 with Cdc2-Os1 and CycD3-Os (the rice cyclin D3) were verified using a yeast two hybrid approach. In a preliminary step, yeast strain PJ69-4A (MATa trp1-901 leu2-3,112 ura3-52 his3-200 gal4(deleted) gal80(deleted) LYS2::GAL1-HIS3 GAL2-ADE2 met2::GAL7-lacZ) was transformed with Cdc2-Os1 in bait vector pBDGal4 (Stratagene), using the lithium acetate method, well known to those skilled in the art. The rice Cdc2-Os1 was previously obtained by PCR as described in Example 1. The Cdc2-Os1 was also cloned in the pADGal4 prey vector. The junctions between the pBDGal4 binding domain and the pADGal4 activation domain and the Cdc2-Os1 fragment were sequenced to verify correct in-frame fusion.
(§2) Two putative positive clones were identified. A second round of screening on these clones was performed. Pure positive plaques were isolated and phagemids were excised therefrom. Sequencing of the two clones reveiled that the clones were identical with a full length size of 1.7 kb. The clones contain an ORF of 1140 bp encoding a protein of 380 amino acids. This protein is designated cyclin D3 from rice (CycD3-Os). […]
(§3) As positive controls, growth was assessed in yeast containing the prey vector pADGal4 with Cdc2-Os1 and retransformed with the bait vector pBDGal4 containing OsICK2 or CycD3-Os. […]

[2] = target: T2, rice cyclin-dependent kinase Cdc2-Os1 (rice, UniProt P29618 1-294); experiment: yeast two-hybrid, Cdc2-Os1 in prey pADGal4 with empty pBDGal4
T2 construct: The Gal4 parts are not written into the chain
T2 sequence (P29618 whole entry, the tested form may be a part): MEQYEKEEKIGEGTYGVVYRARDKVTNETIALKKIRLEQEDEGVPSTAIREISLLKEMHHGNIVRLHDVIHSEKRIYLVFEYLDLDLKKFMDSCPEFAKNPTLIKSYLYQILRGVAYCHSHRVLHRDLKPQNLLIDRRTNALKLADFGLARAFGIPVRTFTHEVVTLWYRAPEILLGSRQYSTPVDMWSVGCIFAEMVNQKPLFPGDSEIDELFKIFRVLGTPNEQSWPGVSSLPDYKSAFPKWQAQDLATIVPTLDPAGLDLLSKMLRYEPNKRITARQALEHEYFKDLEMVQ
Source text: as §1, §2, §3

[3] = target: T2, rice cyclin-dependent kinase Cdc2-Os1; experiment: yeast two-hybrid, Cdc2-Os1 in bait pBDGal4 with empty prey pADGal4
Source text: as §1, §2, §3

[4] = target: T1, full-length rice OsICK2 protein; experiment: yeast two-hybrid, OsICK2 in bait pBDGal4 with empty prey pADGal4
Source text: as §1, §2, §3

Binder | binding result [1] | binding result [2] | binding result [3] | binding result [4]
B1 | no binding | no binding | – | –
B2 | – | – | no binding | no binding
